From paper PMC5686127, “Accessibility of the histone H3 tail in the nucleosome for binding of paired readers” (Nature Communications, 2017) come the findings set out here.

The test system of series [1] is CHD4 PHD1/2. The series is described as follows: fluorescence polarization. The settings on record: 75 mM NaCl, apparent Kd, FP: 15 mM Tris pH 7.5, 75 mM NaCl, 0.00625% Tween20, 3 mM DTT, 5 nM NCP, FRET: 15 mM Tris pH 7.5, 1 mM EDTA, 0.00625% Tween20, 25 nM NCP, NMR: ….
Series [2] deals with nucleosome (NCP) with fluorescein-labelled DNA, for fluorescence polarization (human). The series is described as follows: fluorescence polarisation; increasing amounts of CHD4 PHD1/2, PHD1 or PHD2 added to 5 nM nucleosomes with fluorescein-labelled DNA; 15 mM Tris pH 7.5, 75 mM NaCl, 0.00625% Tween20, 3 mM DTT; apparent.
The test system of series [3] is CHD4 PHD1/2. Briefly: FRET (nucleosome unwrapping). The settings on record: 1.4 uM LexA present, FP: 15 mM Tris pH 7.5, 75 mM NaCl, 0.00625% Tween20, 3 mM DTT, 5 nM NCP, FRET: 15 mM Tris pH 7.5, 1 mM EDTA, 0.00625% Tween20, 25 nM NCP, NMR: ….
In the next series the test system is LexA. Briefly: FRET (nucleosome unwrapping). The settings on record: FP: 15 mM Tris pH 7.5, 75 mM NaCl, 0.00625% Tween20, 3 mM DTT, 5 nM NCP, FRET: 15 mM Tris pH 7.5, 1 mM EDTA, 0.00625% Tween20, 25 nM NCP, NMR: ….

pKd: −log10 of the molar value.

Sequence of CHD4 PHD1/2 (aa 361–503) (Q14839 361-503): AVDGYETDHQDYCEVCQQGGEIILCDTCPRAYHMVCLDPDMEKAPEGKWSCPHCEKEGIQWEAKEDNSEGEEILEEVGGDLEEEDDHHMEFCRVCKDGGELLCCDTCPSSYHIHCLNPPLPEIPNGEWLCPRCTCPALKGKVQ

Fluorescein-NCP, 601 L with LexA site: the pKd in the series on CHD4 PHD1/2 [1] is 6.20.
In the case of “CHD4 PHD1/2 (aa 361–503) (from UniProt Q14839 361-503) (domain or fragment)”, the pKd in series [2] is 6.20.
For Cy3-Cy5-NCP, 601 L with LexA site, the results for the K half in the series on CHD4 PHD1/2 [3] and in the series with LexA were 32 µM and 1400 nM, respectively.
